Experimental data: patent US20110142842A1 (MEDINNOVA, published 2011)

Biological target: HLA-A*0201 (human, UniProt A*02:01)
Assay: REVEAL MHC binding assay (ProImmune)

Binder | % Pass/fail control
LMSFFILLL [Peptide ID 104 LMSFFILLL (CD53)] | 161 % of pass/fail control
ELSEDSSNV [Peptide ID 103 ELSEDSSNV (CD18)] | 139 % of pass/fail control
WLSAAPTSL [Peptide ID 102 WLSAAPTSL (CD33)] | 207 % of pass/fail control
NVAELLHQV [Peptide ID 101 NVAELLHQV (ZAP-70)] | 200 % of pass/fail control
